Test results: publication PMC4864350, “Fluorogenic Substrates for In Situ Monitoring of Caspase-3 Activity in Live Cells” (PLoS ONE, 2016)
Non-standard residues stand in square brackets, D forms with d. *: point of attachment. MethylRed = CN(C)c1ccc(/N=N/c2ccccc2C(=O)*)cc1; FAM = 5(6)-carboxyfluorescein; peptoid = not defined here; Ahx = NCCCCCC(=O)O

What was measured:
caspase-7 [1] = target: T1, caspase-7 (Homo sapiens, UniProt P55210); assay: Caspase-7-mediated cleavage at high enzyme concentration analysed by MALDI-TOF MS; type: biochemical; conditions: 10–20 μM substrate, 0.4 μM enzyme, 2 h; for cleavage by caspase-7 (MALDI-TOF MS): 37 °C; for cleavage site with caspase-7: MALDI-TOF MS
T1 construct: purchased R&D systems, USA
T1 sequence (P55210 24-198 limits assumed): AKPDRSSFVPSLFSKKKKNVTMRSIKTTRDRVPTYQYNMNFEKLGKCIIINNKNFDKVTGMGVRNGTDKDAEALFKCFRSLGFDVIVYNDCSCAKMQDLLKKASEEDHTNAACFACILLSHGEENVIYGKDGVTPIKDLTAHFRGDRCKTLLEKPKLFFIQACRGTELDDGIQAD
T1 sequence (P55210 207-303 limits assumed): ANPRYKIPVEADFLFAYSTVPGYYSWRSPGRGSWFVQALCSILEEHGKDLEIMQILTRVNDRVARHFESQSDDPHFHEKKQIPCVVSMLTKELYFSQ
Method: (§1) To confirm how specific 11, 12 and 14 were for caspase-3, these substrates were incubated with high enzyme concentrations (10–20 μM substrate, 0.4 μM enzyme) and the caspase-mediated cleavage analysed by MALDI-TOF MS.
(§2) S2 Fig. (A) MALDI-TOF MS spectra of substrate 11 (sequence Asp-Ala-Pro-Asp). (B) After incubation (20 µM) with Caspase-3 for 2 h. (C) After incubation (20 µM) with Caspase-7 for 2 h (detected as the PBS adduct.)
(§3) Caspase-3 or caspase-7 (R&D systems, USA) was added to 100 µL of caspase assay buffer (final enzyme concentration 0.4 µM) with the substrates at 10–20 µM. The samples were incubated in Eppendorf Thermomixer® Comfort shaking at 1200 rpm for 2h at 37 °C. MALDI -TOF mass spectra were recorded as described in Table S1 .
(§4) (1 picture or pasted object on this page, not shown here)

caspase-7 [2] = target: T1, caspase-7; assay: Kinetic assay of fluorogenic substrates with caspase-7; type: biochemical; conditions: substrate range 0.1–8 μM; enzyme 20 nM (1–9) or 15 nM (10–14); n = 3
Method: (§5) The ability of […] (bearing MR as the quencher of choice) to act as s substrate for caspase-3, as well as caspase-7, was investigated by determining the catalytic efficiency (kcat/KM) for each substrate with both enzymes (Table 2).
(§6) Caspase-3 or caspase-7 (R&D systems, USA) was added to 100 μL of caspase assay buffer with substrates 1–14 at concentrations from 0.1 μM to 8 μM in a 96-well plate (n = 3) to give final enzyme concentration of 20 nM (1–9) or 15 nM (10–14). Fluorescence (λEx/Em 485/528 nm) was recorded on a Biotek Synergy HT Multi-Mode Microplate Reader every 2 min. Control samples had the same composition but no enzyme. The rate (μM/min) was calibrated using a 5(6)-carboxyfluorescein conversion factor (0.0055 μM/RFU) and data plotted against time (min). For initial cleavage rate (0–5 min), plots were fitted using linear regression analysis and the Michaelis-Menten data generated using GraphPad Prism 5.

caspase-3 [3] = target: T2, caspase-3 (Homo sapiens, UniProt P42574); assay: Kinetic assay of fluorogenic substrates with caspase-3; type: biochemical; conditions: substrate range 0.1–8 μM, enzyme 20 nM (1–9) or 15 nM (10–14), n = 3; for Km: fluorescence λEx/Em 485/528 nm, initial rate 0–5 min, Michaelis-Menten
T2 construct: purchased R&D systems, USA
T2 sequence (P42574 29-175 limits assumed): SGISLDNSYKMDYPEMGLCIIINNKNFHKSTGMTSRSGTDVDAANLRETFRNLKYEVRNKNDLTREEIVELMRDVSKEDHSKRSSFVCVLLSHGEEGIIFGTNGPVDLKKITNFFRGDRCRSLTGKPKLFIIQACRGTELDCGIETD
T2 sequence (P42574 176-277 limits assumed): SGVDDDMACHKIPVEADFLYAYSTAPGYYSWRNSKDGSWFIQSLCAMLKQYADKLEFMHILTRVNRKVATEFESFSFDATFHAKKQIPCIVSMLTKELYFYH
Method: as §5, §6

caspase-3 [4] = target: T2, caspase-3; assay: Caspase-3-mediated cleavage at high enzyme concentration analysed by MALDI-TOF MS; type: biochemical; conditions: 10–20 μM substrate, 0.4 μM enzyme; for cleavage by caspase-3 (MALDI-TOF MS): 2 h, 37 °C; for parent compound after incubation with caspase-3: after 2h, MALDI-TOF MS
Method: as §1, §2, §3, §4

caspase-3 [5] = target: T3, caspase-3 (UniProt P42574)
T3 sequence: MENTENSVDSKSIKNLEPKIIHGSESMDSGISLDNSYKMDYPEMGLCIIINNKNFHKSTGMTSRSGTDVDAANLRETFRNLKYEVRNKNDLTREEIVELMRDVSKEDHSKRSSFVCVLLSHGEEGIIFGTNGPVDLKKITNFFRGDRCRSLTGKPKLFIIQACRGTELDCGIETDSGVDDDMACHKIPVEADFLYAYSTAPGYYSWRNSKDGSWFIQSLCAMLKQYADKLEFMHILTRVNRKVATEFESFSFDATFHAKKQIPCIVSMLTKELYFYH

caspase-3 [6] = target: T3, caspase-3; remark: listed apart in the source

## substrate 14: FRET fluorogenic substrate, recognition Asp-Val-Pro-Asp, quencher MR, C-terminal peptoid ({FAM-Ahx}-DVPD[Ahx]K(MethylRed)-{peptoid-NH2}; reading uncertain; also: printed as Asp-Val-Pro-Asp)
caspase-7 [1]
  cleavage by caspase-7 (MALDI-TOF MS): (partially) cleaved by caspase-7
  cleavage site with caspase-7: between the Ahx spacer and the Lys(MR)
caspase-7 [2]
  Km: 3.6 ± 0.9 µM
  kcat, Caspase-7: 0.0233 ± 0.0033 s⁻¹
  kcat/KM, Caspase-7: 6700 M⁻¹ s⁻¹
caspase-3 [3]
  Km: 0.2 ± 0.04 µM
  Kcat, Caspase-3: 0.0283 ± 0.0017 s⁻¹
caspase-3 [4]
  cleavage by caspase-3 (MALDI-TOF MS): cleaved by caspase-3 at the X1 position
  parent compound after incubation with caspase-3: no longer detected

## substrate 12: FRET fluorogenic substrate, recognition Asp-Leu-Pro-Asp, quencher MR, C-terminal peptoid ({FAM-Ahx}-DLPD[Ahx]K(MethylRed)-{peptoid-NH2}; reading uncertain; also: printed as Asp-Leu-Pro-Asp)
caspase-7 [1]
  cleavage by caspase-7 (MALDI-TOF MS): (partially) cleaved by caspase-7
  cleavage site with caspase-7: between the Ahx spacer and the Lys(MR)
caspase-7 [2]
  Km: 1.4 ± 0.3 µM
  kcat, Caspase-7: 0.015 ± 0.0012 s⁻¹
  kcat/KM, Caspase-7: 12000 M⁻¹ s⁻¹
caspase-3 [3]
  Km: 0.2 ± 0.1 µM
  Kcat, Caspase-3: 0.0233 ± 0.0033 s⁻¹
caspase-3 [3]; listed as 12
  kcat/KM (catalytic efficiency), Caspase-3: 96700 M⁻¹ s⁻¹
caspase-3 [4]
  cleavage by caspase-3 (MALDI-TOF MS): cleaved by caspase-3 at the X1 position
  parent compound after incubation with caspase-3: no longer detected

## substrate 11: FRET fluorogenic substrate, recognition Asp-Ala-Pro-Asp, quencher MR, C-terminal peptoid ({FAM-Ahx}-DAPD[Ahx]K(MethylRed)-{peptoid-NH2}; reading uncertain; also: printed as Asp-Ala-Pro-Asp)
caspase-7 [1]
  cleavage by caspase-7 (MALDI-TOF MS): (partially) cleaved by caspase-7
  cleavage site with caspase-7: between the Ahx spacer and the Lys(MR)
caspase-7 [2]
  Km: 4.9 ± 2.1 µM
  kcat, Caspase-7: 0.0267 ± 0.005 s⁻¹
  kcat/KM, Caspase-7: 5000 M⁻¹ s⁻¹
caspase-3 [3]
  Km: 0.4 ± 0.1 µM
  Kcat, Caspase-3: 0.0217 ± 0.0017 s⁻¹
caspase-3 [3]; listed as 11
  kcat/KM (catalytic efficiency), Caspase-3: 56700 M⁻¹ s⁻¹
caspase-3 [4]
  cleavage by caspase-3 (MALDI-TOF MS): cleaved by caspase-3 at the X1 position
  parent compound after incubation with caspase-3: no longer detected

B1: fluorogenic substrate 14 (FAM-Ahx-Asp-Val-Pro-Asp-Ahx-Lys(MR)-peptoid) (peptide)
peptide: {FAM-Ahx}-DVPD[Ahx]K(MethylRed)-{peptoid-NH2}
modifications: reading uncertain; also: printed as Asp-Val-Pro-Asp
caspase-3 [5]
  KM of cleavage by caspase-3 (fluorogenic Michaelis-Menten kinetics, substrate 0.1-8 μM, 15 nM enzyme): 0.2 µM

B2: fluorogenic substrate 12 (FAM-Ahx-Asp-Leu-Pro-Asp-Ahx-Lys(MR)-peptoid) (peptide)
peptide: {FAM-Ahx}-DLPD[Ahx]K(MethylRed)-{peptoid-NH2}
modifications: reading uncertain; also: printed as FAM-Ahx-Asp-Leu-Pro-Asp-Ahx-Lys(MR)-peptoid
caspase-3 [5]
  KM of cleavage by caspase-3 (fluorogenic Michaelis-Menten kinetics, substrate 0.1-8 μM, 15 nM enzyme): 0.2 µM

B3: fluorogenic substrate 27 (FAM-Ahx-Asp-Leu-Pro-Asp-Lys(MR)-Ahx-peptoid) (peptide)
peptide: {FAM-Ahx}-DLPDK(MethylRed)-{Ahx-peptoid}
modifications: reading uncertain; also: printed as FAM-Ahx-Asp-Leu-Pro-Asp-Lys(MR)-Ahx-peptoid
caspase-3 [6]
  KM of cleavage by caspase-3 (fluorogenic Michaelis-Menten kinetics): 1.1 µM

B4: fluorogenic substrate 11 (FAM-Ahx-Asp-Ala-Pro-Asp-Ahx-Lys(MR)-peptoid) (peptide)
peptide: {FAM-Ahx}-DAPD[Ahx]K(MethylRed)-{peptoid-NH2}
modifications: reading uncertain; also: printed as Asp-Ala-Pro-Asp
caspase-3 [5]
  KM of cleavage by caspase-3 (fluorogenic Michaelis-Menten kinetics, substrate 0.1-8 μM, 15 nM enzyme): 0.4 µM
